Assay results from patent US20220177583A1 (University of California, published 2022).

T1: CLDN9-GFP expressed on engineered HEK293T cells (human, UniProt O95484 1-217)
T1 construct: whole, on cells; also called HEK293T CLDN9-mGFP; Artificial CLDN9+; not shown: GFP tag
T1 sequence (looked up): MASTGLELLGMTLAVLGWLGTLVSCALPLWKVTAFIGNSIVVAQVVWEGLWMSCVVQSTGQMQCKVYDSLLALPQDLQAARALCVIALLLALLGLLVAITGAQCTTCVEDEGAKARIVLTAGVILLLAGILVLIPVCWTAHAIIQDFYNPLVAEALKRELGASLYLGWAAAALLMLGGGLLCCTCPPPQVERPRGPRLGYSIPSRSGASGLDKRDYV

T2: human CLDN6, endogenously expressed on cancer cell lines (human, UniProt P56747 1-220)
T2 construct: also called Endogenous CLDN6+; CLDN6 on ARK2, OVCA429, UMUC4 cells
T2 sequence: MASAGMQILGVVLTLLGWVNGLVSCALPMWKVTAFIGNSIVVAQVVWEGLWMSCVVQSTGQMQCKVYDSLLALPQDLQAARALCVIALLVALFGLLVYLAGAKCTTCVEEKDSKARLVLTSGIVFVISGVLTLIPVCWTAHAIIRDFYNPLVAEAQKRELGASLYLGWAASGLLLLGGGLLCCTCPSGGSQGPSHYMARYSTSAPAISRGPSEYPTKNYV

T3: mouse CLDN6 fused to GFP, expressed on engineered HEK293T cells (mouse, UniProt Q9Z262 1-219)
T3 construct: whole, on cells; also called HEK293T-CLDN6-mGFP Artificial CLDN6+ (mouse); murine CLDN6; not shown: GFP tag
T3 sequence (looked up): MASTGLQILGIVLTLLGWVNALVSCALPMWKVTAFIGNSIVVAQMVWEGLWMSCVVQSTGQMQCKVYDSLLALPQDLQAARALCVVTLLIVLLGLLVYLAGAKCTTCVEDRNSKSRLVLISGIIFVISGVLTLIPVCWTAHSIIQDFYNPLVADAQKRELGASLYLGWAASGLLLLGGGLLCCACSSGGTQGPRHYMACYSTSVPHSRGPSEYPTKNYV

T4: CLDN4-GFP expressed on engineered HEK293T cells (human, UniProt O14493 1-209)
T4 construct: whole, on cells; also called HEK293T CLDN4-mGFP; Artificial CLDN4+; not shown: GFP tag
T4 sequence (looked up): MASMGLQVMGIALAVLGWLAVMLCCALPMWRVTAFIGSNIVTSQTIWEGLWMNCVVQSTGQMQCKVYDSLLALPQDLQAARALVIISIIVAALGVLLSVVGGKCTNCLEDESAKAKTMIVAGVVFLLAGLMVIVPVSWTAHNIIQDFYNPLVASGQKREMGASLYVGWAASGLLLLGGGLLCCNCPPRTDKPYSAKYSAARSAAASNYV

B1: AB1 (antibody, V domains shown)
VH: QVQLQQSAAELARPGASVKMSCKASGYTFTTYTMHWVKQRPGQGLEWIGFINPSSGYTDYNQKFKDRTTLTADKSSSTVYMQLSSLTSEDSAVYYCANGDYYVAYWGQGTLVTVSA
VL: QIVLTQSPAIMSASLGERVTMTCTASSSVSSTYFHWYQQKPGSSPKLWIYSTSNLASGVPRRFSGSASGTSYSLTISSMEAEDAATYYCHQYHRSPLTFGAGTKLELK
notes: Full-length IgG (ExpiCHO)
B2: AB5 (antibody, V domains shown)
VH: EVQLQQSGPELVKPGASVKMSCKASGYIFTHYIMHWVKQKPGQGLEWIGCINPYNDGTKYNEKFKGKATLTSDKSSSTAYMELSSLTSEDSAVYYCARYYGYPYYSMDYWGQGTSVTVSS
VL: DVLMTQTPLSLPVSLGDQPSISCRSSQSIVHSNGNTYLDWYLQKPGQSPKLLIYKVSNRFSGVPDRFSGSGSGTDFTLKISRVEAEDLGVYYCFQGSHVPFTFGSGTRLEIK
notes: Full-length IgG (ExpiCHO)
B3: AB12 (antibody, V domains shown)
VH: EVKLMESGGDLVKPGGSLKLSCAASGFTFSSYAMSWVRQTPEKRLEWVASIRSGGTTYYPDSVKGRFTISRDNARNILYLRMSSLRSEDTAIYYCAKVGGNPYPMDYWGQGTSVTVSS
VL: DIQMIQSPSSMFASLGDRVSLSCRASQDIGGNLDWYQQKPGGTIKLLIYSTSNLNSGVPSRFSGSGSGSDYSLTITSLESEDFADYYCLQRNAYPLTFGAGTKLELK
notes: Full-length IgG (ExpiCHO)
B4: AB11 (antibody, V domains shown)
VH: DVQLVESGGGLVQPRGSRKLSCAASGFTFSSFGMHWVRQAPEKGLEWVAYISSDSRTIYYADTVKGRFTISRDNPTNTLFLQMTSLRSEDTAMYYCARDYGRTYEAYWGQGTLVTVSA
VL: DIVLTQSPASLAVSLGQRATISCRASKSVSTSGYSYIHWYQQKPGQPPKLLIYLASNLESGVPARFSGSGSGTDFTLNIHPVEEEDAATYYCQHSRELPLTFGAGTKLELK
notes: Full-length IgG (ExpiCHO)
B5: AB15 (antibody, V domains shown)
VH: DVQLVESGGGLVQPRGSRKLSCAASGFTFSSFGMHWVRQAPEKGLEWVAYISSDSRTIYYADTVKGRFTISRDNPTNTLFLQMTSLRSEDTAMYYCARDYGRTYEAYWGQGTLVTVSA
VL: NIMMTQSPSSLAVSAGEKVTMSCKSSQSVLFSSNQKNYLAWYQQKPGQSPRLLIYWASTRESGVPDRFTGSGSGTDFTLTISNVQAEDLAVYYCHQYLSSRTFGAGTKLELK
notes: Full-length IgG (ExpiCHO)
B6: AB4 (antibody, V domains shown)
VH: QVQLQQSGAELARPGASVKMSCKASGYTFTSYTMHWIKQRPGQGQEWIGYINPSSTYTHYIKKFKDKATLTADKSSSTAYMQLRSLTSEDSAVYYCSRGELGGFAYWGQGTLVTVSA
VL: DVVMTQTPLSLPVSLGDQASISCRSSQSLVHSDGNTYLNWYLQKPGQSPKLLIYKVSNRFSGVPDRFSGSGSGTDFTLKIRRVEAEDLGVYFCSQSTHVPYTFGGGTKLEIK
notes: Full-length IgG (ExpiCHO)
B7: AB10 (antibody, V domains shown)
VH: QIQLVQSGPALKKPGETVKISCKASGYTFTDYSMHWIKQAPGKGLKWMGWISTETGEPTYADGFKGRFDFSLETSADTAYLSINNLTNEDTATYFCTRGLWSSFAYWGQGTLVTVSA
VL: DVVMTQTPLSLPVSLGDQASISCRASQSLVHSNGNTYLHWFLQKPGQSPKLLIYKVSNRFSGVPDRFSGSGSRTDFTLKISRVEAEDLGVYFCSQITHVPYTFGGGTKLEIK
notes: Full-length IgG (ExpiCHO)

Columns and labels:
[1] = biological target: T1, CLDN9-GFP expressed on engineered …; experiment: FACS dose curve, labelled mAb, HEK293T CLDN9-mGFP cells
[2] = biological target: T2, human CLDN6, endogenously expressed on …; experiment: FACS dose curve, labelled mAb, ARK2 cells
[3] = biological target: T3, mouse CLDN6 fused to GFP, expressed on …; experiment: FACS dose curve, labelled mAb, HEK293T-CLDN6-mGFP (mouse) cells
[4] = biological target: T2, human CLDN6, endogenously expressed on …; experiment: FACS dose curve, labelled mAb, OVCA429 cells
[5] = biological target: T4, CLDN4-GFP expressed on engineered …; experiment: FACS dose curve, labelled mAb, HEK293T CLDN4-mGFP cells

| Binder | EC50 [1] [nM] | EC50 [2] [nM] | EC50 [3] [nM] | EC50 [4] [nM] | EC50 [5] [nM] |
| --- | --- | --- | --- | --- | --- |
| B1 | 2760 | 105 | 72 | 84 | – |
| B2 | 25 | 8 | 11 | 5 | – |
| B3 | 2470 | 1300 | – | 2290 | 2090 |
| B4 | – | 363 | 2380 | 835 | 2240 |
| B5 | – | – | ≥ 5000 | – | ≥ 5000 |
| B6 | 1860 | 48 | ≥ 5000 | 168 | – |
| B7 | 246 | 2140 | – | 2470 | – |
